Measured values from publication PMC3702631 (Structure (London, England : 1993), 2013).

B1: mouse TBK1 C-terminal truncation, residues 1-657 (GST tag cleaved) (domain or fragment, UniProt Q9WUN2 1-657, looked up)
chain: MQSTSNHLWLLSDILGQGATANVFRGRHKKTGDLYAVKVFNNISFLRPVDVQMREFEVLKKLNHKNIVKLFAIEEETTTRHKVLIMEFCPCGSLYTVLEEPSNAYGLPESEFLIVLRDVVGGMNHLRENGIVHRDIKPGNIMRVIGEDGQSVYKLTDFGAARELEDDEQFVSLYGTEEYLHPDMYERAVLRKDHQKKYGATVDLWSVGVTFYHAATGSLPFRPFEGPRRNKEVMYKIITGKPSGAISGVQKAENGPIDWSGDMPLSCSLSQGLQALLTPVLANILEADQEKCWGFDQFFAETSDVLHRMVIHVFSLQHMTAHKIYIHSYNTAAVFHELVYKQTKIVSSNQELIYEGRRLVLELGRLAQHFPKTTEENPIFVTSREQLNTVGLRYEKISLPKIHPRYDLDGDASMAKAVTGVVCYACRTASTLLLYQELMRKGVRWLVELVKDDYNETVHKKTEVVITLDFCIRNIEKTVKVYEKLMKVNLEAAELGEISDIHTKLLRLSSSQGTIESSLQDISSRLSPGGLLADTWAHQEGTHPRDRNVEKLQVLLNCITEIYYQFKKDKAERRLAYNEEQIHKFDKQKLYYHATKAMSHFSEECVRKYEAFKDKSEEWMRKMLHLRKQLLSLTNQCFDIEEEVSKYQDYTNELQET
B2: full-length mouse TBK1 (GST tag cleaved) (enzyme, UniProt Q9WUN2 1-729, looked up)
chain: MQSTSNHLWLLSDILGQGATANVFRGRHKKTGDLYAVKVFNNISFLRPVDVQMREFEVLKKLNHKNIVKLFAIEEETTTRHKVLIMEFCPCGSLYTVLEEPSNAYGLPESEFLIVLRDVVGGMNHLRENGIVHRDIKPGNIMRVIGEDGQSVYKLTDFGAARELEDDEQFVSLYGTEEYLHPDMYERAVLRKDHQKKYGATVDLWSVGVTFYHAATGSLPFRPFEGPRRNKEVMYKIITGKPSGAISGVQKAENGPIDWSGDMPLSCSLSQGLQALLTPVLANILEADQEKCWGFDQFFAETSDVLHRMVIHVFSLQHMTAHKIYIHSYNTAAVFHELVYKQTKIVSSNQELIYEGRRLVLELGRLAQHFPKTTEENPIFVTSREQLNTVGLRYEKISLPKIHPRYDLDGDASMAKAVTGVVCYACRTASTLLLYQELMRKGVRWLVELVKDDYNETVHKKTEVVITLDFCIRNIEKTVKVYEKLMKVNLEAAELGEISDIHTKLLRLSSSQGTIESSLQDISSRLSPGGLLADTWAHQEGTHPRDRNVEKLQVLLNCITEIYYQFKKDKAERRLAYNEEQIHKFDKQKLYYHATKAMSHFSEECVRKYEAFKDKSEEWMRKMLHLRKQLLSLTNQCFDIEEEVSKYQDYTNELQETLPQKMLAASGGVKHAMAPIYPSSNTLVEMTLGMKKLKEEMEGVVKELAENNHILERFGSLTMDGGLRNVDCL

Target: the molecule itself
Assay: SEC

Row | Protein | stoichiometry N
1 | B1 | 2
2 | B2 | 2
